Values quoted from earlier work, collected in paper PMC3711752.

Molecular target: EGF receptor (Homo sapiens) (UniProt P00533)

Chain of EGF (P01133 971-1023): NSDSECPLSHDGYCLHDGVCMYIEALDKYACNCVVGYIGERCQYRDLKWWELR

In the case of EGF (from UniProt P01133), the Kd is listed as 3 nM.
